Our source for the percent of CAR-T cells with anti-ROR1 recognition values is patent US20220153839A1.

This experiment has as its target ROR1 (reagent by which anti-ROR1 recognition of CAR-T cells was read; form not stated). Put plainly: FACS of EGFR+ transduced T cells.

Sequence of ROR1 (reagent by which anti-ROR1 recognition of CAR-T cells was read; form not stated) (Q01973 24-403): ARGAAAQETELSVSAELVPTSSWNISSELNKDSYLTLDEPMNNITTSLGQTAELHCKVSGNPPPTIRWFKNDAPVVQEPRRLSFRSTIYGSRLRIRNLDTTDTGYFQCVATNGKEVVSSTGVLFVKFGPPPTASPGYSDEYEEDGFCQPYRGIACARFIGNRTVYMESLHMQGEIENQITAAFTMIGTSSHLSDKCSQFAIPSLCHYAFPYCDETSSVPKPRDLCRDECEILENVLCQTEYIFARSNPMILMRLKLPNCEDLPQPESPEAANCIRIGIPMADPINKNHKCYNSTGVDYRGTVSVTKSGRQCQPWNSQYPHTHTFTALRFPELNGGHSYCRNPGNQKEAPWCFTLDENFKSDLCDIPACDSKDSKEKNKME

B1: XBR1-402 chimeric antigen receptor with short spacer, on CD8+ T cells (protein, part only; not given: scFv linker, spacer, signaling parts, not shown: large carriers)
scFv, part: QEQQKESGGGLFKPTDTLTLTCTASGFDISSYYMSWVRQAPGNGLEWIGAIGISGNAYYASWAKSRSTITRNTNLNTVTLKMTSLTAADTATYFCARDHPTYGMDLWGPGTLVTVSSSYELTQLPSVSVSLGQTARITCEGNNIGSKAVHWYQQKPGLAPGLLIYDDDERPSGVPDRFSGSNSGDTATLTISGAQAGDEADYYCQVWDSSAYVFGGGTQLTVTG
The molecule B1 gave a percent of CAR-T cells with anti-ROR1 recognition of more than 90%.

B2: XBR1-402 chimeric antigen receptor with long spacer, on CD8+ T cells (protein, part only; not given: scFv linker, spacer, signaling parts, not shown: large carriers)
scFv, part: QEQQKESGGGLFKPTDTLTLTCTASGFDISSYYMSWVRQAPGNGLEWIGAIGISGNAYYASWAKSRSTITRNTNLNTVTLKMTSLTAADTATYFCARDHPTYGMDLWGPGTLVTVSSSYELTQLPSVSVSLGQTARITCEGNNIGSKAVHWYQQKPGLAPGLLIYDDDERPSGVPDRFSGSNSGDTATLTISGAQAGDEADYYCQVWDSSAYVFGGGTQLTVTG
Consider B2, for which the percent of CAR-T cells with anti-ROR1 recognition was more than 90%.
